Measured values published in US20150104388A1.

Biological target: PAC1 receptor (human) (UniProt P41586)
Test: cell-based or functional assay

Chain of PAC1 receptor (human) (P41586 21-468): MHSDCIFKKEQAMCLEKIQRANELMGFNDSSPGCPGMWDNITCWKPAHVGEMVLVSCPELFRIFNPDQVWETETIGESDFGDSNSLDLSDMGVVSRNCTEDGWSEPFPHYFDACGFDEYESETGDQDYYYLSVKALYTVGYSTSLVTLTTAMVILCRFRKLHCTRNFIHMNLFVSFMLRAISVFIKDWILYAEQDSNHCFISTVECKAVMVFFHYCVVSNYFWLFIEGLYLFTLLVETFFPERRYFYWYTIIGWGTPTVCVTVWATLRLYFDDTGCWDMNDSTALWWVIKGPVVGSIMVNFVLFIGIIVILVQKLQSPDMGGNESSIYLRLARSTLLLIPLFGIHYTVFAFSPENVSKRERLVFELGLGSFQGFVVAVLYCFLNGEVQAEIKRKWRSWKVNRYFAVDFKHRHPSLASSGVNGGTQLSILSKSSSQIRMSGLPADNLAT

Substance: PACAP38 analog with nipecotic acid in position 3 (peptide)
- fold lower potency as inhibitor of multiple myeloma cell proliferation, against the corresponding analog with pipecolic acid in position 3: 10000 fold
